Laboratory results published in PMC6393308.
Where a chain is given by its changes, count along the chain named.

T1: HpSoj K199/227/230/247E (Helicobacter pylori 26695, UniProt O25759 1-264, K199E;K227E;K230E;K247E)
T1 sequence: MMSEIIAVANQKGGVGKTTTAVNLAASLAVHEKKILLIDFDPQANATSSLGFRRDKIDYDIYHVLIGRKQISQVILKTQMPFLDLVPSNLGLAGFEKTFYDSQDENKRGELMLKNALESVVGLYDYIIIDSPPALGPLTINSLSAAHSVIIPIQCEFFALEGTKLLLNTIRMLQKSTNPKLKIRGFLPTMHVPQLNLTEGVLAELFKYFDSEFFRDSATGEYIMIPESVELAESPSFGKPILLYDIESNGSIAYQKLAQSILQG

T2: HpSoj K230E (Helicobacter pylori 26695, UniProt O25759 1-264, K230E)
T2 sequence: T1 sequence with E199K, E227K, E247K

T3: HpSoj K199E (Helicobacter pylori 26695, UniProt O25759 1-264, K199E)
T3 sequence: T1 sequence with E227K, E230K, E247K

T4: HpSoj K199/230E (Helicobacter pylori 26695, UniProt O25759 1-264, K199E;K230E)
T4 sequence: T1 sequence with E227K, E247K

T5: HpSoj (Helicobacter pylori 26695, UniProt O25759 1-264)
T5 sequence: T1 sequence with E199K, E227K, E230K, E247K

B1: parS24 Cy3 (dsDNA)
DNA 1: AGGGTGTTCCACGTGAAACAGGGA
DNA 2: TCCCTGTTTCACGTGGAACACCCT
B2: parS55 (dsDNA)
DNA 1: CTGAATCAGCAGTTGAATCAGAATGTTCCACGTGAAACAAAGAAAAAAGAACCTG
DNA 2: CAGGTTCTTTTTTCTTTGTTTCACGTGGAACATTCTGATTCAACTGCTGATTCAG

Key:
HpSoj K199/227/230/247E = target: T1, HpSoj K199/227/230/247E; assay: fluorescence polarization
HpSoj K230E = target: T2, HpSoj K230E; assay: fluorescence polarization
HpSoj K199E = target: T3, HpSoj K199E; assay: fluorescence polarization
HpSoj K199/230E = target: T4, HpSoj K199/230E; assay: fluorescence polarization
HpSoj [1] = target: T5, HpSoj; assay: fluorescence polarization
HpSoj [2] = target: T5, HpSoj; assay: EMSA

| Binder | binding result (HpSoj K199/227/230/247E) | Kd (HpSoj K230E) [nM] | Kd (HpSoj K199E) [nM] | Kd (HpSoj K199/230E) [nM] | Kd (HpSoj [1]) [nM] | binding result (HpSoj [2]) |
| --- | --- | --- | --- | --- | --- | --- |
| B1 | no binding | 187 ± 36 | 215 ± 24 | 308 ± 40 | 122 ± 14 |  |
| B2 |  |  |  |  |  | binds |
